Measured values as given in paper doi:10.1101/2023.06.15.545071 (2023).

Experiments:
Experiment in all cases: MST
ETR1 1-598 = target: ETR1 1-598
ETR1 1-407 = target: ETR1 1-407
ETR1 1-157 = target: ETR1 1-157
ETR1 1-307 = target: ETR1 1-307
[1] = target: T1, full-length ETR1, purified and fluorescently labelled (Arabidopsis, UniProt P49333 1-738, fluorescent label (dye and site not stated))
T1 chain: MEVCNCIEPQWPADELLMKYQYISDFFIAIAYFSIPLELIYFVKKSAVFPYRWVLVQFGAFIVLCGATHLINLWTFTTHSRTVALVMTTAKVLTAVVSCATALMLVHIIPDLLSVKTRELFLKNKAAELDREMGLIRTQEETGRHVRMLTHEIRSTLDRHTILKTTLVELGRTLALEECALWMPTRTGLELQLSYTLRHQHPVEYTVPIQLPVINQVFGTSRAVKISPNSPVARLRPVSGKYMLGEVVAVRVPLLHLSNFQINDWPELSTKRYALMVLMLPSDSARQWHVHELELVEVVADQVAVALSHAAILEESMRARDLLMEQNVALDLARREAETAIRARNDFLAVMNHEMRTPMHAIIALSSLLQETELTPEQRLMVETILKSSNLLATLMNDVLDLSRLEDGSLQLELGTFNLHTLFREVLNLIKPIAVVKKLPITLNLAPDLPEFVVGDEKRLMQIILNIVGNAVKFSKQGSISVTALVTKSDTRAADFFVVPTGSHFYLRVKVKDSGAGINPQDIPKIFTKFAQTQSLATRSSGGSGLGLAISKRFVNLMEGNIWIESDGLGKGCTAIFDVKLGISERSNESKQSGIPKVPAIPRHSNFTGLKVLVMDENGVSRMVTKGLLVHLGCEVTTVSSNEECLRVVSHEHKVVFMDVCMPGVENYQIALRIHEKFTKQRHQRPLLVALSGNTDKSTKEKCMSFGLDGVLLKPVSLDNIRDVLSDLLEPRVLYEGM

Kd (ETR1 1-598): 2.92 µM
Kd (ETR1 1-407): 1.65 µM
Kd (ETR1 1-157): 1.52 µM
Kd (ETR1 1-307): 1.79 µM
Kd [1]: 1.9 µM
Binder: MKPRLCFNFRRRSISPCYISISYLLVAKLFKLFKIH [synthetic full length PLS peptide PLS(FL)]
